Experimental data taken from US20230183352A1.

Key:
[1] = target: Biotin QP004.3 (biotin-PDL1-FC) (human) (UniProt Q9NZQ7); assay: binding ELISA, antibody coated, biotin-PDL1-FC titrated
[2] = target: Biotin QP004.3 (biotin-PDL1-FC) (human) (UniProt Q9NZQ7); assay: blocking ELISA, PD1-FC coated, biotin-PDL1-FC plus antibody; competitor PD1-FC
[3] = target: Claudin 18.1 (CLDN18.1), expressed on CHOS-CLDN18.1 cells (UniProt P56856); assay: FACS, CHOS-CLDN18.1 cells, 10 µg/ml
Chain of Claudin 18.1 (CLDN18.1), expressed on CHOS-CLDN18.1 cells (P56856 whole entry): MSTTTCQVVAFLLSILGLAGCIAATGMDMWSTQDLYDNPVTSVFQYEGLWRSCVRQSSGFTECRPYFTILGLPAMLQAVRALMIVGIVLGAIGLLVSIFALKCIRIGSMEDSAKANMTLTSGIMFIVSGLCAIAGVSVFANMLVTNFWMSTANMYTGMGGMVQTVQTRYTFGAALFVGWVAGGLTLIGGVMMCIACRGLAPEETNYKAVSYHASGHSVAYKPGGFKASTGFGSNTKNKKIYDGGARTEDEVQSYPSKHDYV

Chain of Biotin QP004.3 (biotin-PDL1-FC) (human) (Q9NZQ7 19-238 limits assumed): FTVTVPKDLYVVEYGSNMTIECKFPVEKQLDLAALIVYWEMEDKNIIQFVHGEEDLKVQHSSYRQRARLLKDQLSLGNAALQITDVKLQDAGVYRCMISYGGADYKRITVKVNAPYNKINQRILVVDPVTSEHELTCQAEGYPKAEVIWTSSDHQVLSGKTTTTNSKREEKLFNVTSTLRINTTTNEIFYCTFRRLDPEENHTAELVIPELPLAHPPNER

Binder	ELISA reading at 0.0007 µg/ml biotin-PDL1-FC [1]	ELISA reading at 0.0021 µg/ml biotin-PDL1-FC [1]	ELISA reading at 0.0062 µg/ml biotin-PDL1-FC [1]	ELISA reading at 0.0185 µg/ml biotin-PDL1-FC [1]	ELISA reading at 0.0556 µg/ml biotin-PDL1-FC [1]	ELISA reading at 0.1667 µg/ml biotin-PDL1-FC [1]	ELISA reading at 0.5000 µg/ml biotin-PDL1-FC [1]	ELISA reading at 2.0000 µg/ml biotin-PDL1-FC [1]	ELISA reading at 0.0457 nM antibody [2]	ELISA reading at 0.1372 nM antibody [2]	ELISA reading at 0.4115 nM antibody [2]	ELISA reading at 1.2346 nM antibody [2]	ELISA reading at 3.7037 nM antibody [2]	ELISA reading at 11.1111 nM antibody [2]	ELISA reading at 33.3333 nM antibody [2]	ELISA reading at 100.0000 nM antibody [2]	MFI [3]
QP1166 (Fc fusion, not shown: a dimerising Fc or GST) QVQLVESGGDSVQPGGSLRLSCAASGFTYGTYAMSWFRQAPGKEREGVACIDIYGRTSYTDPVKGRFTISQDNAKNTLYLQMNSLKPEDTAMYYCAARDFGYCTASWVHEGFSRYWGQGTQVTVSS	0.217	0.56	1.55	2.57	3.23	3.13	3.28	3.41	1.16	1.24	1.06	1.13	1.06	0.508	0.239	0.167	–
QP190191 (antibody, human IgG1, V domains shown) VH: EVKLVESGGGLVKPGGSLKLSCAASGFTFSNYAMSWVRQTPEKRLEWVASIISGGRTYYLDSEKGRFTISRDNARNNLYLQMSSLRSEDTAMYYCTRIYYGNSFDYWGQGTTLTVSS VL: DIVMTQSPSSQTVTAGEKVTMSCKSSQSLLNSGNQKNYLTWYQQKPGQPPKLLIYWASTRESGVPDRFTGSGSGTDFTLTISNMQAEDLAVYYCQNDYSYPFTFGSGTKLEIK	–	–	–	–	–	–	–	–	–	–	–	–	–	–	–	–	1060
QP207208 (antibody, human IgG1, V domains shown) VH: EVQLQQSGPELVKPGASVKMSCKASGYTFTSYIMHWVKQKPGQGLEWIGYINPYNDGTKYNEKFKGKATLTSDKSSSTVYMELSSLTSEDSAVYCCARLGFTTRNAMDYWGQGTSVTVSS VL: DIVMTQSPSSLSVSAGEKVTMNCKSSQSLLNSGNQKNYLAWYQQKPGQPPKLLIYGASTRESGVPDRFTGSGSGTDFTLTISSVQAEDLAVYYCQNDHSYPFTFGSGTKLEIK	–	–	–	–	–	–	–	–	–	–	–	–	–	–	–	–	1320
QP192193 (antibody, human IgG1, V domains shown) VH: QVQLQQSGAELVRPGSSVKISCKASGYAFSSYWMNWVKQRPGQGLEWIGQIYPGNGDTTYNGKFKGQATLTADKSSSTVYMQLSSLTSEDSAVYFCARFVKGNAMDYWGQGTSVTVSS VL: DIVMTQSPSSLTVTAGEKVTMSCKSSQSLLNSGNQKNYLTWYQQNPGQPPKMLIYWASTRESGVPDRFTGSGSGIDFSLTISSVQAEDLALYYCQNAYSYPFTFGSGTKLEIK	–	–	–	–	–	–	–	–	–	–	–	–	–	–	–	–	1030
QP201202 (antibody, human IgG1, V domains shown) VH: EVQLQQSGPELVKPGASVKMSCKASGYTFTNYFVHWVKQKPGQGLEWIGYINPYNDDTKYNEKFKGKATLTSDKSSSTAYMDLSSLTSEDSAVYYCLSLRFFAYWGQGTLVTVSA VL: DIVMTQSPSSLTVTAGEKVTMSCKSSQSLLNSGNQKNYLTWYQQKPGQAPKLLIYWASTRESGVPDRFIGSGSGTDFTLTISHVQAEDLAVYFCQNDYSYPLTFGAGTNLELK	–	–	–	–	–	–	–	–	–	–	–	–	–	–	–	–	1150
QP199200 (antibody, human IgG1, V domains shown) VH: DVQLVESGGGLVQPGGSRKLSCAASGFTFSSFGMHWVRQAPEKGLEWVAYISSGSNSIYYVDTVKGRFTISRDNPKNTLFLQMTSLKSEDTAMYYCARNAYYGNSFDYWGQGTTLTVSS VL: DIVMTQSPSSLTVTAGEKVTMSCKSSQSLLNSGNQKNYLTWYQQKPGQPPKLLIYWASTRESGVPDRFTGSGSGTVFTLTISSVQAEDLAVYFCQNNYYYPLTFGAGTKLELK	–	–	–	–	–	–	–	–	–	–	–	–	–	–	–	–	918
QP320 (Fc fusion, not shown: a dimerising Fc or GST) EVQLLESGGGLVQPGGSLRLSCAASGFTYGTYAMSWVRQAPGKGLEWVSCIDIYGRASYTDPVKGRFTISRDNSKNTLYLQMNSLRAEDTAVYYCAARDFGYCTASWVHEGFSRYWGQGTLVTVSS	0.125	0.114	0.108	0.0792	0.0843	0.0957	0.142	0.23	1.21	1.3	1.47	1.08	1.11	1.12	1.02	0.793	–
QP324 (Fc fusion, not shown: a dimerising Fc or GST) EVQLLESGGGLVQPGGSLRLSCAASGFTYGTYAMSWVRQAPGKGLEWVACIDIYGRTSYTDPVKGRFTISQDNSKNTLYLQMNSLRAEDTAVYYCAARDFGYCTASWVHEGFSRYWGQGTLVTVSS	0.192	0.141	0.15	0.107	0.0882	0.129	0.201	0.413	1.29	1.06	0.901	0.879	0.895	0.753	0.737	0.661	–
QP325 (Fc fusion, not shown: a dimerising Fc or GST) EVQLLESGGGLVQPGGSLRLSCAASGFTYGTYAMSWFRQAPGKGLEGVACIDIYGRTSYTDPVKGRFTISQDNSKNTLYLQMNSLRAEDTAVYYCAARDFGYCTASWVHEGFSRYWGQGTLVTVSS	0.182	0.598	1.32	2.12	2.78	3.11	3.21	3.42	1.08	1.02	0.975	0.995	1.03	0.513	0.238	0.156	–
